Patent US20240376195A1 (BEIGENE, published 2024)
Positions count from the first letter of the chain named.

What was measured:
his-tagged human NKp30 [1] = target: T1, his-tagged human NKp30 (human, UniProt O14931 19-135); assay: SPR, antibody captured on anti-human Fc surface
T1 construct: Analyte of the SPR assay; not shown: his tag
T1 sequence: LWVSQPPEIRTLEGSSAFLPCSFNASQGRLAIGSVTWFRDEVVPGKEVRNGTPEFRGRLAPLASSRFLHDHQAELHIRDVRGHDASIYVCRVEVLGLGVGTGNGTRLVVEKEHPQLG
Text: (§1) Further engineered versions of humanized monoclonal antibodies were derived from the mutation process described as above and characterized in detail. […] For affinity determination, antibodies were captured by anti-human Fc surface, and used in the affinity assay based on surface plasmon resonance (SPR) technology. All the humanization antibodies shown above were also confirmed for functional activities on primary human immune cells isolated from healthy donors (described in Example 7 below).

his-tagged human NKp30 [2] = target: T1, his-tagged human NKp30; assay: SPR, antibody captured on anti-human Fc surface; NKp30 analyte not named in Example 4
Text: as §1

[3] = target: T2, full-length human NKp30 on NK92MI cells (human, UniProt O14931 19-201); assay: flow cytometry on live NK92MI cells over-expressing human NKp30, goat anti-human IgG detection
T2 construct: Full-length human NKp30 over-expressed on NK92MI cells; also called huNKp30; native NKp30
T2 sequence: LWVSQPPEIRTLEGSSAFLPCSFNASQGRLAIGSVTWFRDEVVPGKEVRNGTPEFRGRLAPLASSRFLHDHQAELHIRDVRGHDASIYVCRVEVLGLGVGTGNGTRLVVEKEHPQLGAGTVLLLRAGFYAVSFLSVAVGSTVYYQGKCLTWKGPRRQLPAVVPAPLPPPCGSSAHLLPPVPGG
Experimental: To evaluate the binding activity of anti-NKp30 antibodies to native NKp30 on living cells, NK92MI cells were transfected to over-express human NKp30. Live NK92mi/NKp30 expressing cells were seeded in 96-well plates and were incubated with a serial dilution of anti-NKp30 antibodies. Goat anti-Human IgG was used as secondary antibody to detect antibody binding to the cell surface. EC₅₀ values for dose-dependent binding to human native NKp30 were determined by fitting the dose-response data to the four-parameter logistic model with GraphPad Prism™.

W20A = target: T3, W20A; assay: ELISA; 50 ng Nkp30-Fc variant coated, antibody at 20 nM, HRP-linked secondary antibody; signal relative to wild type
T3 construct: single alanine mutant; also called mutant Nkp30-Fc W20A
T3 Fc fusion chain: T1 sequence with W2A
Experimental: (§2) To characterize the binding epitope of BGA1833, 10 amino acid residues of NKp30 were mutated to alanine individually to generate 10 single-mutation NKp30 variants based upon the information from the crystal structure of NKp30 reported previously (Li et al., J Exp Med. 2011 208:703-714). The mutant NKp30 proteins along with the wild-type NKp30 protein were analyzed for their recognition and binding by BGA1833. Another humanized anti-NKp30 antibody, BGA1913, was also analyzed in the same ELISA assay for comparison. In this assay, 50 ng each of wild-type or mutant Nkp30-Fc was coated in an ELISA plate. After blocking, 100 μl of BGA1833 or BGA1913 antibody at a concentration of 20 nM was added to the plate and the binding signal of each antibody was detected by HRP-linked secondary antibody. All ELISA results were normalized using the mean values of the ELISA reading of wild type NKp30-Fc binding signal as the standard. To simplify data analysis, if an antibody's ELISA binding signal for a specific mutant NKp30 dropped to or below 25%, then the amino acid at that site was considered critical to the epitope.

S52A = target: T4, S52A; assay: as above
T4 construct: single alanine mutant; also called mutant Nkp30-Fc S52A
T4 Fc fusion chain: T1 sequence with S34A
Experimental: as §2

E65A = target: T5, E65A; assay: as above
T5 construct: single alanine mutant; also called mutant Nkp30-Fc E65A
T5 Fc fusion chain: T1 sequence with E47A
Experimental: as §2

R109A = target: T6, R109A; assay: as above
T6 construct: single alanine mutant; also called mutant Nkp30-Fc R109A
T6 Fc fusion chain: T1 sequence with R91A
Experimental: as §2

E111A = target: T7, E111A; assay: as above
T7 construct: single alanine mutant; also called mutant Nkp30-Fc E111A
T7 Fc fusion chain: T1 sequence with E93A
Experimental: as §2

V117A = target: T8, V117A; assay: as above
T8 construct: single alanine mutant; also called mutant Nkp30-Fc V117A
T8 Fc fusion chain: T1 sequence with V99A
Experimental: as §2

T119A = target: T9, T119A; assay: as above
T9 construct: single alanine mutant; also called mutant Nkp30-Fc T119A
T9 Fc fusion chain: T1 sequence with T101A
Experimental: as §2

K129A = target: T10, K129A; assay: as above
T10 construct: single alanine mutant; also called mutant Nkp30-Fc K129A
T10 Fc fusion chain: T1 sequence with K111A
Experimental: as §2

fold lower affinity than the initial antibody (his-tagged human NKp30 [1]): ~10 fold | Kd (his-tagged human NKp30 [2]): 1.92 nM | koff (his-tagged human NKp30 [2]): 0.00278 s⁻¹ | kon (his-tagged human NKp30 [2]): 1.45e+06 M⁻¹ s⁻¹ | EC50 [3]: 1.31 nM | binding result (W20A): binds | binding result (S52A): binds | binding result (E65A): binds | binding result (R109A): binds | binding result (E111A): binds | binding result (V117A): binds | binding result (T119A): binds | binding result (K129A): binds
B1: BGA1833 (antibody, human IgG1, kappa)
heavy: QVQLVQSGAEVKKPGASVKVSCKASGYTFTSSYMHWVRQAPGQGLEWMGEIHPNRDNTNYNEKFKGRVTMTRDTSTSTVYMELSSLRSEDTAVYYCARSYYEYGGAYFDAWGQGTLVTVSSASTKGPSVFPLAPSSKSTSGGTAALGCLVKDYFPEPVTVSWNSGALTSGVHTFPAVLQSSGLYSLSSVVTVPSSSLGTQTYICNVNHKPSNTKVDKKVEPKSCDKTHTCPPCPAPPAAGPSVFLFPPKPKDTLMISRTPEVTCVVVDVSHEDPEVKFNWYVDGVEVHNAKTKPREEQYNSTYRVVSVLTVLHQDWLNGKEYKCKVSNKALAAPIEKTISKAKGQPREPQVYTLPPSRDELTKNQVSLTCLVKGFYPSDIAVEWESNGQPENNYKTTPPVLDSDGSFFLYSKLTVDKSRWQQGNVFSCSVMHEALHNHYTQKSLSLSPGK
light: QIQLTQSPSSLSASVGDRVTITCKASQDVSTAVAWYQQKPGKAPKLLIYAASYRHIGVPSRFSGSGSGTDFTLTISSLQPEDFATYYCQQHYSNPFTFGGGTKVEIKRTVAAPSVFIFPPSDEQLKSGTASVVCLLNNFYPREAKVQWKVDNALQSGNSQESVTEQDSKDSTYSLSSTLTLSKADYEKHKVYACEVTHQGLSSPVTKSFNRGEC
notes: also called BGA1833 (IgG1mf format)
